# ± gives the uncertainty stated by the source.
# Test: self-splicing fitness, log relative to wild type (ln ratio); higher = more splicing; Tetrahymena group I intron in knt gene, E. coli kanamycin selection, DiMSum; sequences stand for … in CUCUCU…GGAGGGAAAAGUUAUCAGGCAUGCACCUGGUAGCUAGUCUUUAAACCAAUAGAUUGCAUCGGUUUAAAAGGCAAGACCGUCAAAUUGCGGGAAAGGGGUCAACAGCCGUUCAGUACCAAGUCUCAGGGGAAACUUUGAGAUGGCCUUGCAAAGGGUAUGGUAAUAAGCUGACGGACAUGGUCCUAACCACGCAGCCAAGUCCUAAGUCAACAGAUCUUCUGUUGAUAUGGAUGCAGUUCACAGACUAAAUGUCGGUCGGGGAAGAUGUAUUCUUCUCAUAAGAUAUAGUCGGACCUCUCCUUAAUGGGAGCUAGCGGAUGAAGUGAUGCAACACUGGAGCCGCUGGGAACUAAUUUGUAUGCGAAAGUAUAUUGAUUAGUUUUGGAGUACUCGUGGUCG
# Procedure, shortened: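 Pooled colonies went to amplicon sequencing on an Illumina HiSeq 2500 after six replicate transformations. The plates were LB agar with 100 μg/mL carbenicillin, 50 μM IPTG and 0.2% rhamnose, with or without 25 μg/mL kanamycin, incubated overnight at 37°C or 30°C. The E. coli BL21(DE3) library had all eight P1ex-region intron nucleotides randomised, the intron placed in the knt kanamycin-resistance gene on pET-22b(+). DiMSum fitness is the error-weighted combination of replicate fold changes, kanamycin against none, normalised to wild type.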
Sequence,self-splicing fitness (ln) (30 °C),self-splicing fitness (ln) (37 °C)
GCAAAGCAAUAUUACGCAUA,-1.86 ± 0.14,-1.43 ± 0.18
GAGAAGCAAUAUUACGUAUC,-3.78 ± 0.37,-3.21 ± 0.35
AUGAAGCAAUAUUACGAGCC,-3.01 ± 0.38,-3.27 ± 0.38
GGCGAGCAAUAUUACGGGCA,-0.695 ± 0.15,-0.194 ± 0.15
CACAAGCAAUAUUACGAAAG,-0.721 ± 0.08,0.0107 ± 0.1
AAUUAGCAAUAUUACGGGGU,-2.06 ± 0.2,-2.02 ± 0.32
AACAAGCAAUAUUACGUUUA,-2.45 ± 0.09,-1.07 ± 0.074
ACAGAGCAAUAUUACGGCGC,-1.6 ± 0.14,-0.0642 ± 0.18
UUAAAGCAAUAUUACGGCUA,0.185 ± 0.091,0.424 ± 0.12
UGUGAGCAAUAUUACGACGG,-1.3 ± 0.34,-0.759 ± 0.28
ACGAAGCAAUAUUACGUCGC,-3.22 ± 0.21,-1.24 ± 0.17
UAUGAGCAAUAUUACGCGCC,-4.05 ± 0.42,–
UAACAGCAAUAUUACGAUGU,-2.73 ± 0.13,-2.08 ± 0.14
UACUAGCAAUAUUACGAGAU,-2.46 ± 0.23,-1.54 ± 0.28
GAACAGCAAUAUUACGUCUG,-2.54 ± 0.079,-0.775 ± 0.077
GGAGAGCAAUAUUACGUGGG,-3.07 ± 0.44,-2.28 ± 0.33
CCCUAGCAAUAUUACGACAU,-3.809 ± 0.024,-2.93 ± 0.039
AAAUAGCAAUAUUACGGGCC,-2.49 ± 0.32,-2.55 ± 0.41
AACCAGCAAUAUUACGUCGA,-0.87 ± 0.071,-0.757 ± 0.07
UCAUAGCAAUAUUACGGUCG,-1.14 ± 0.083,-0.0517 ± 0.1
CCAUAGCAAUAUUACGGUUU,-4.54 ± 0.25,-2.79 ± 0.21
GUCAAGCAAUAUUACGCUGC,–,-3.33 ± 0.27

Sequence,self-splicing fitness (ln) (30 °C),self-splicing fitness (ln) (37 °C)
AAGGAGCAAUAUUACGGAGA,-3.62 ± 0.31,-2.35 ± 0.27
UCGAAGCAAUAUUACGCUAA,–,-2.07 ± 0.36
AACAAGCAAUAUUACGCACC,-0.717 ± 0.097,-0.435 ± 0.14
UAUUAGCAAUAUUACGAGAC,-2.57 ± 0.47,–
CCAAAGCAAUAUUACGAGUG,-0.346 ± 0.039,-0.144 ± 0.058
GCCAAGCAAUAUUACGGGGG,-4.11 ± 0.19,-2.35 ± 0.14
UUGUAGCAAUAUUACGGUGU,-2.41 ± 0.42,-2.3 ± 0.26
AAAUAGCAAUAUUACGCGUU,-2.16 ± 0.087,-1.22 ± 0.092
UUAAAGCAAUAUUACGAUGA,0.452 ± 0.081,0.681 ± 0.11
CGACAGCAAUAUUACGACGC,-2.21 ± 0.11,-0.587 ± 0.12
CAAGAGCAAUAUUACGUCUC,-3.6 ± 0.17,-2.73 ± 0.18
CACUAGCAAUAUUACGUCAA,-3.77 ± 0.22,-2.27 ± 0.14
GUACAGCAAUAUUACGCCCG,-1.85 ± 0.14,-1.38 ± 0.2
CAGUAGCAAUAUUACGGCGC,-1.59 ± 0.4,-0.863 ± 0.25
UAGUAGCAAUAUUACGACUA,-0.0384 ± 0.12,0.251 ± 0.12
GCUGAGCAAUAUUACGGAUG,-3.53 ± 0.18,-1.22 ± 0.12
UGGAAGCAAUAUUACGGCUC,-1.89 ± 0.49,-1.42 ± 0.36
UACUAGCAAUAUUACGUGUC,-3.38 ± 0.17,-2.79 ± 0.15
GUGGAGCAAUAUUACGAGUG,–,-1.74 ± 0.36
GGGGAGCAAUAUUACGGGCA,-2.87 ± 0.34,-1.47 ± 0.26
CAAGAGCAAUAUUACGUCUA,-2.41 ± 0.13,-1.56 ± 0.11

# Reference: the supplement of paper PMC7877785
